Here are results for two substances from publication PMC3281904, “Novel Covalently Linked Insulin Dimer Engineered to Investigate the Function of Insulin Dimerization” (PLoS ONE, 2012).

By stoichiometry N is commonly meant the number of molecules, sites or subunits per partner or assembly.

The conditions of data set [1]: hexameric insulin, previously determined, ref 65 (HI), 66 (bovine), 67 (porcine), cited from earlier work. The text has this:
Table 2 The experimental parameters determined from the fit in Figure 2 and results previously determined for hexameric insulin of human and porcine origin. | column: Standard Sedimentation Coefficient s20,w, [S]; Standard Diffusion Coefficient D20,w, (×10−7 [cm^2/s]); Molar mass [kg/mole]; Rh [nm]

In data set [2] the target is B25C insulin precursor (human) (UniProt P01308). Description: LC/MS; LC/MS of the fermentations; mass of a disulfide-linked dimer.

Marks after values point to notes of the source that are not given here.

For “Bovine insulin: hexameric bovine insulin, literature values”, the “Standard Sedimentation Coefficient s20,w” value in data set [1] (HI probably affected by non-ideality) is 3.12 S. In data set [1], the Molar mass is 34.4 kg/mol, the Rh is 2.63 nm and the “Standard Diffusion Coefficient D20,w” value is 8.35 ^* ×10−7 cm^2/s.

“B25C insulin precursor (from UniProt P01308 1-29)” showed a stoichiometry N in data set [2] of 2.
